According to the Human Domainome abundance scans (Beltran et al. 2025):
± gives the uncertainty stated by the source.

B1: V(D)J recombination-activating protein 2, residues 415 to 491; numbered along this chain, P55895 (parent)
chain: YWITCCPTCDVDINTWVPFYSTELNKPAMIYCSHGDGHWVHAQCMDLAERTLIHLSAGSNKYYCNEHVEIARALHTP
B2: PDZ and LIM domain protein 2, residues 284 to 339; numbered along this chain, Q96JY6 (parent)
chain: HTCEKCSTSIANQAVRIQEGRYRHPGCYTCADCGLNLKMRGHFWVGDELYCEKHAR

Variants of: B1
Test: abundance fitness (aPCA) (normalised: wild type 0, dead -1); higher = more abundant; growth selection in yeast, the domain comes from the species named
Conditions: Homo sapiens

In order of rising abundance fitness:
1. V40W  -1.16 ± 0.23
2. C44W  -0.98 ± 0.14
3. W16Q  -0.916 ± 0.43
4. C64P  -0.822 ± 0.26
5. L47P  -0.684 ± 0.09
6. Y62D  -0.558 ± 0.11
7. Y62N  -0.469 ± 0.17
8. W2L  -0.467 ± 0.066
9. Y20P  -0.378 ± 0.26
10. S21Q  -0.325 ± 0.37
11. L47S  -0.277 ± 0.047
12. H54Q  -0.277 ± 0.15
13. N25M  -0.254 ± 0.24
14. P7W  -0.242 ± 0.23
15. T4P  -0.234 ± 0.068
16. W2M  -0.226 ± 0.052
17. N60W  -0.207 ± 0.096
18. D46W  -0.193 ± 0.07
19. M45D  -0.193 ± 0.21
20. Y31S  -0.188 ± 0.063
21. L52I  -0.186 ± 0.14
22. F19E  -0.179 ± 0.16
23. T22A  -0.157 ± 0.41
24. T51I  -0.138 ± 0.12
25. R72F  -0.131 ± 0.18
26. I53W  -0.124 ± 0.12
27. T51F  -0.118 ± 0.12
28. F19K  -0.116 ± 0.27
29. H34N  -0.089 ± 0.11
30. T51Y  -0.068 ± 0.26
31. A48C  -0.061 ± 0.14
32. N60R  -0.058 ± 0.056
33. D46E  -0.05 ± 0.075
34. R72E  -0.042 ± 0.12
35. I3M  -0.041 ± 0.07
36. N60V  -0.04 ± 0.068
37. Y31C  -0.039 ± 0.14
38. A71C  -0.033 ± 0.061
39. R50Q  -0.032 ± 0.1
40. S56Q  -0.031 ± 0.13
41. C6G  -0.024 ± 0.39
42. T51H  0.003 ± 0.14
43. V11C  0.012 ± 0.38
44. T51K  0.014 ± 0.12
45. S59G  0.019 ± 0.044
46. Y63I  0.036 ± 0.12
47. E66M  0.048 ± 0.11
48. R50T  0.049 ± 0.06
49. H75N  0.051 ± 0.26
50. D46Q  0.085 ± 0.045
51. S21H  0.086 ± 0.35
52. H75G  0.087 ± 0.11
53. D46T  0.088 ± 0.061
54. L74G  0.092 ± 0.16
55. I70D  0.112 ± 0.14
56. D46K  0.122 ± 0.074
57. E69Q  0.147 ± 0.37
58. C6S  0.209 ± 0.19

Variants of: B2
Test: as above
Conditions: Homo sapiens

In order of rising abundance fitness:
1. C51V  -1.17 ± 0.15
2. C51T  -1.16 ± 0.27
3. C51W  -1.05 ± 0.15
4. C51R  -0.969 ± 0.095
5. L49N  -0.942 ± 0.47
6. C51Y  -0.94 ± 0.3
7. H54M  -0.901 ± 0.25
8. L49R  -0.885 ± 0.13
9. H54A  -0.865 ± 0.29
10. H54W  -0.856 ± 0.081
11. C51K  -0.839 ± 0.26
12. C51H  -0.827 ± 0.18
13. H54P  -0.771 ± 0.18
14. H54Q  -0.759 ± 0.15
15. H54I  -0.755 ± 0.093
16. H54T  -0.7 ± 0.18
17. H54K  -0.7 ± 0.33
18. C51Q  -0.696 ± 0.35
19. Y50E  -0.673 ± 0.18
20. C51A  -0.669 ± 0.16
21. H54R  -0.655 ± 0.087
22. H54L  -0.653 ± 0.091
23. C51P  -0.614 ± 0.14
24. H54V  -0.612 ± 0.067
25. C51S  -0.609 ± 0.12
26. E52V  -0.605 ± 0.15
27. C51D  -0.593 ± 0.27
28. C51I  -0.523 ± 0.37
29. H54S  -0.522 ± 0.097
30. Y50G  -0.501 ± 0.069
31. E52I  -0.468 ± 0.14
32. H54N  -0.465 ± 0.33
33. A55P  -0.414 ± 0.22
34. L49W  -0.39 ± 0.11
35. K53C  -0.377 ± 0.16
36. E52S  -0.352 ± 0.094
37. R56W  -0.344 ± 0.084
38. L49S  -0.341 ± 0.081
39. H54G  -0.317 ± 0.12
40. A55E  -0.309 ± 0.16
41. Y50T  -0.289 ± 0.098
42. H54Y  -0.284 ± 0.15
43. K53I  -0.275 ± 0.18
44. L49Y  -0.269 ± 0.25
45. E52R  -0.256 ± 0.064
46. Y50Q  -0.256 ± 0.069
47. E52C  -0.246 ± 0.1
48. Y50N  -0.239 ± 0.17
49. E52K  -0.226 ± 0.095
50. C51E  -0.219 ± 0.16
51. L49T  -0.207 ± 0.097
52. A55I  -0.203 ± 0.26
53. K53A  -0.198 ± 0.13
54. Y50I  -0.194 ± 0.18
55. Y50A  -0.188 ± 0.086
56. E52A  -0.183 ± 0.059
57. L49Q  -0.174 ± 0.12
58. A55V  -0.172 ± 0.084
59. Y50W  -0.161 ± 0.076
60. K53G  -0.158 ± 0.081
61. E52L  -0.156 ± 0.098
62. L49P  -0.154 ± 0.12
63. E52M  -0.152 ± 0.08
64. K53L  -0.135 ± 0.079
65. K53R  -0.124 ± 0.06
66. E52W  -0.108 ± 0.11
67. A55C  -0.108 ± 0.1
68. E52Q  -0.102 ± 0.22
69. A55D  -0.097 ± 0.11
70. K53F  -0.089 ± 0.19
71. Y50H  -0.083 ± 0.2
72. A55G  -0.079 ± 0.084
73. Y50D  -0.079 ± 0.29
74. E52F  -0.075 ± 0.14
75. L49V  -0.075 ± 0.086
76. A55M  -0.066 ± 0.091
77. K53N  -0.056 ± 0.094
78. Y50L  -0.039 ± 0.084
79. A55T  -0.013 ± 0.11
80. Y50R  -0.008 ± 0.069
81. Y50F  -0.001 ± 0.15
82. A55R  0.005 ± 0.074
83. K53V  0.007 ± 0.085
84. K53Q  0.028 ± 0.075
85. E52D  0.029 ± 0.062
86. K53T  0.037 ± 0.12
87. Y50K  0.04 ± 0.078
88. A55Q  0.041 ± 0.15
89. R56V  0.049 ± 0.14
90. A55W  0.063 ± 0.056
91. R56G  0.068 ± 0.088
92. Y50V  0.072 ± 0.086
93. Y50M  0.077 ± 0.093
94. K53D  0.078 ± 0.14
95. A55Y  0.081 ± 0.073
96. R56C  0.093 ± 0.3
97. A55F  0.12 ± 0.081
98. H54D  0.128 ± 0.065
99. H54C  0.135 ± 0.084
100. A55S  0.148 ± 0.1
101. K53W  0.164 ± 0.11
102. E52N  0.18 ± 0.13
103. E52P  0.183 ± 0.12
104. K53S  0.184 ± 0.088
105. K53E  0.235 ± 0.094
106. K53Y  0.252 ± 0.2
107. R56E  0.263 ± 0.16
108. K53H  0.377 ± 0.14
109. R56L  0.797 ± 0.18
